Test results taken from article PMC9312987, “NMR Reveals Specific Tracts within the Intrinsically Disordered Regions of the SARS-CoV-2 Nucleocapsid Protein Involved in RNA Encountering”.

Target: N protein NTR (IDR1-NTD-IDR2) (SARS-CoV-2, UniProt P0DTC9 1-248)
Experiment: EMSA
Conditions: protein: recombinant; tags: none stated; label: 5'-32P for EMSA; unlabeled for NMR; hairpin (stem loop)

B1: 5_SL4 (SL4 RNA) (structured_RNA)
RNA: GGGUGUGGCUGUCACUCGGCUGCAUGCUUAGUGCACUCACGCCC
  binding result: binds
